Our source for the Km values is article PMC11870023, “A facile assay for zDHHC palmitoyl transferase activation elucidates effects of mutation and modification” (Journal of Lipid Research, 2025).

Where a chain is given by its changes, count along the chain named. In names and notes the source's numbering stands.

Holding throughout (experiment): auto-S-palmitoylation of HEK293 membranes, SDS-PAGE fluorescence normalised to tag Western blot
On the technique in general: Immunoblotting shows a protein as a band on a membrane.

Substrate in data set [1]: CC(C)(COP(=O)(O)OP(=O)(O)OC[C@H]1O[C@@H](n2cnc3c(N)ncnc32)[C@H](O)[C@@H]1OP(=O)(O)O)[C@@H](O)C(=O)NCCC(=O)NCCSC(=O)CCCCCCCCCCCCCCCNc1ccc([N+](=O)[O-])c2nonc12
Format: cell-based, Mus musculus. Conditions: pH 7.4, 37 °C, labelled compound, covalent thioester at active-site Cys.

Substrate in data set [2]: CC(C)(COP(=O)(O)OP(=O)(O)OC[C@H]1O[C@@H](n2cnc3c(N)ncnc32)[C@H](O)[C@@H]1OP(=O)(O)O)[C@@H](O)C(=O)NCCC(=O)NCCSC(=O)CCCCCCCCCCCCCCCNc1ccc([N+](=O)[O-])c2nonc12
The data set is classed as cell-based, Homo sapiens. Conditions: pH 7.4, 37 °C, labelled compound, covalent thioester at active-site Cys.

Substrate in data set [3]: CC(C)(COP(=O)(O)OP(=O)(O)OC[C@H]1O[C@@H](n2cnc3c(N)ncnc32)[C@H](O)[C@@H]1OP(=O)(O)O)[C@@H](O)C(=O)NCCC(=O)NCCSC(=O)CCCCCCCCCCCCCCCNc1ccc([N+](=O)[O-])c2nonc12
The data set is classed as cell-based, Homo sapiens. As to conditions: pH 7.4, 37 °C, 2 min, labelled compound, covalent thioester at active-site Cys. From the text: auto-S-palmitoylation of HEK293 membranes, SDS-PAGE fluorescence normalised to tag Western blot on human zDHHC14 | A373Y mutation within the N-terminal cytoplasmic tail of zDHHC14 (Fig. 4A) had no effect

Substrate in data set [4]: CC(C)(COP(=O)(O)OP(=O)(O)OC[C@H]1O[C@@H](n2cnc3c(N)ncnc32)[C@H](O)[C@@H]1OP(=O)(O)O)[C@@H](O)C(=O)NCCC(=O)NCCSC(=O)CCCCCCCCCCCCCCCNc1ccc([N+](=O)[O-])c2nonc12
The data set is classed as biochemical, Mus musculus. As to conditions: pH 7.4, 37 °C, 2 min, labelled compound, covalent thioester at active-site Cys134.

Substrate in data set [5]: CC(C)(COP(=O)(O)OP(=O)(O)OC[C@H]1O[C@@H](n2cnc3c(N)ncnc32)[C@H](O)[C@@H]1OP(=O)(O)O)[C@@H](O)C(=O)NCCC(=O)NCCSC(=O)CCCCCCCCCCCCCCCNc1ccc([N+](=O)[O-])c2nonc12
The data set is classed as cell-based, Homo sapiens. Conditions: pH 7.4, 37 °C, 2 min, labelled compound, covalent thioester at active-site Cys. The source says:
auto-S-palmitoylation of HEK293 membranes, SDS-PAGE fluorescence normalised to tag Western blot on human zDHHC2 | neither S306 F nor M356I mutation of zDHHC2 within the C-terminal cytoplasmic tail
The source holds these as a separate data set.

B1: mouse zDHHC4 (Mus musculus) (protein)
chain: MDFLVLFLFYLAFLLICVVLICIFTKSQRLKAVVLGGAQVCSRVIPQCLQRAVQTLLHQLFHTRHPTFIVLHLLLQGLVYAEYTCEVFGYCRELEFSLPYLLLPYVLLSVNLVFFTLTCAANPGTITKANESFLLQVYKFDDVMFPKNSRCPTCDLRKPARSKHCRLCDRCVHRFDHHCVWVNNCIGAWNTRYFLIYLLTLTASAATIATVTAAFLLRLVTVSDLYQETYLDDVGHFQAVDTVFLIQHLFLAFPRIVFLLGFVIVLSMLLAGYLCFALYLAATNQTTNEWYKGDWAWCQRWPLVAWSPSAEPRIHQNIHSHGFRSNLREIFLPATPSYKKKEK
notes: full length, HA tag kept (pEF-Bos-HA), HEK293 membrane fraction
B1: the Km in data set [1] is 0.69 ± 0.13 µM.

B2: mouse zDHHC2 (Mus musculus) (protein)
chain: MAPSGSGGVRRRCRRVLYWIPVVFISLLLGWSYYAYAIQLCIVSMENIGEQVVCLMAYHLLFAMFVWSYWKTIFTLPMNPSKEFHLSYAEKELLEREPRGEAHQEVLRRAAKDLPIYTRTMSGAIRYCDRCQLIKPDRCHHCSVCDKCILKMDHHCPWVNNCVGFSNYKFFLLFLAYSLLYCLFIAATDLQYFIRFWTNGLPDTQAKFHIMFLFFAAAMFSVSLSSLFGYHCWLVSKNKSTLEAFRNPVFRHGTDKNGFSLGFSKNMRQVFGDEKKYWLLPVFSSQGDGCSFPTCLVNQDPEQPSTPAGLNSTVKNPENHQFPAKPLRESQSHLLKDSQTWTESSANPGKGKAGMSNPALTMENET
notes: as for B1
For the protein B2, the Km in data set [1] is 2.86 ± 0.78 µM.

B3: human zDHHC4 (Homo sapiens) (protein)
chain: MDFLVLFLFYLASVLMGLVLICVCSKTHSLKGLARGGAQIFSCIIPECLQRAVHGLLHYLFHTRNHTFIVLHLVLQGMVYTEYTWEVFGYCQELELSLHYLLLPYLLLGVNLFFFTLTCGTNPGIITKANELLFLHVYEFDEVMFPKNVRCSTCDLRKPARSKHCSVCNWCVHRFDHHCVWVNNCIGAWNIRYFLIYVLTLTASAATVAIVSTTFLVHLVVMSDLYQETYIDDLGHLHVMDTVFLIQYLFLTFPRIVFMLGFVVVLSFLLGGYLLFVLYLAATNQTTNEWYRGDWAWCQRCPLVAWPPSAEPQVHRNIHSHGLRSNLQEIFLPAFPCHERKKQE
notes: full length, His6-Myc tag kept (pCEpuro-His6-Myc-1), HEK293 membrane fraction
On to B3, for which the Km in data set [2] (5 min) stood at 9.68 ± 2.34 µM.

B4: human zDHHC14 (Homo sapiens) (protein)
chain: MPPGGGGPMKDCEYSQISTHSSSPMESPHKKKKIAARRKWEVFPGRNKFFCNGRIMMARQTGVFYLTLVLILVTSGLFFAFDCPYLAVKITPAIPAVAGILFFFVMGTLLRTSFSDPGVLPRATPDEAADLERQIDIANGTSSGGYRPPPRTKEVIINGQTVKLKYCFTCKIFRPPRASHCSLCDNCVERFDHHCPWVGNCVGKRNYRFFYMFILSLSFLTVFIFAFVITHVILRSQQTGFLNALKDSPASVLEAVVCFFSVWSIVGLSGFHTYLISSNQTTNEDIKGSWSNKRGKENYNPYSYGNIFTNCCVALCGPISPSLIDRRGYIQPDTPQPAAPSNGITMYGATQSQSDMCDQDQCIQSTKFVLQAAATPLLQSEPSLTSDELHLPGKPGLGTPCASLTLGPPTPPASMPNLAEATLADVMPRKDEHMGHQFLTPDEAPSPPRLLAAGSPLAHSRTMHVLGLASQDSLHEDSVRGLVKLSSV
notes: as for B3
As for B4, the Km in data set [2] (2 min) is 1.78 ± 0.32 µM.

B5: human zDHHC14 (Homo sapiens; A373Y) (protein)
chain: B4 chain with A373Y
notes: as for B3
In the case of B5, the Km in data set [3] turned out to be 1.72 ± 0.50 µM.

B6: HA-tagged mouse zDHHC5 (Mus musculus) (protein)
chain: MPAESGKRFKPSKYVPVSAAAIFLVGATTLFFAFTCPGLSLNVSPAVPIYNAIMFLFVLANFSMATFMDPGIFPRAEEDEDKEDDFRAPLYKTVEIKGIQVRMKWCATCRFYRPPRCSHCSVCDNCVEEFDHHCPWVNNCIGRRNYRYFFLFLLSLTAHIMGVFGFGLLYVLYHIEELSGVRTAVTMAVMCVAGLFFIPVAGLTGFHVVLVARGRTTNEQVTGKFRGGVNPFTNGCCNNVSRVLCSSPAPRYLGRPKKEKTIVIRPPFLRPEVSDGQITVKIMDNGIQGELRRTKSKGSLEITESQSADAEPPPPPKPDLSRYTGLRTHLSLATNEDSSLLGKDSPPTPTMYKYRPGYSSSSTSAAMPHSSSAKLSRGDSLKEPTSIADSSRHPSYRSEPSLEPESFRSPTFGKSFHFDPLSSGSRSSSLKSAQGTGFELGQLQSIRSEGTTSTSYKSLANQTRNGSLSYDSLLTPSDSPDFESVQAGPEPDPPLGYTSPFLSARLAQQREAERHPRLLPTGPPHREPSPVRYDNLSRHIVASLQEREKLLRQSPPLAGREEEPGLGDSGIQSTPGSGHAPRTSSSSDDSKRSPLSKTPLGRPAVPRFGKPDGLRSRGLGSPEPGTTAPYLGRSISYSSQKAPSGVSETEEVALQPLLTPKDEVQLKTTYSKSNGQPKSIGSASPGPGQPPLSSPTRGGVKKVSGVGGTTYEISV
notes: full length, HA tag kept (pEF-Bos-HA), overexpressed in HEK293 cells, native membrane fraction; 78 kDa band
As for B6, the Michaelis-Menten constant (Km) in data set [4] came to 3.59 ± 0.29 µM.

B7: HA-tagged mouse zDHHC5 (Mus musculus; C236S/C237S/C245S) (protein)
chain: B6 chain with C236S, C237S, C245S
notes: as for B6
B7: in data set [4], the Km is 17.95 ± 11.12 µM.

B8: mouse zDHHC3 (Mus musculus) (protein)
chain: MMLIPTHHFRDIERKPEYLQPEKCAPPPFPGPAGAMWFIRDGCGIACAIVTWFLVLYAEFVVLFVMLVPSRDYAYSIINGIVFNLLAFLALASHCRAMLTDPGAVPKGNATKEFIESLQLKPGQVVYKCPKCCSIKPDRAHHCSVCKRCIRKMDHHCPWVNNCVGENNQKYFVLFTMYIALISLHALIMVGFHFLHCFEEDWTKCSSFSPPTTVILLILLCFEALLFLIFTSVMFGTQVHSICTDETGIEQLKKEERRWAKKTKWMNMKAVFGHPFSLGWASPFATPDQGKADPYQYVV
notes: as for B1
Turning to B8, in data set [1], the Km turned out to be 6.83 ± 0.98 µM.

B9: human zDHHC2 (Homo sapiens; S306F) (protein)
chain: MAPSGPGSSARRRCRRVLYWIPVVFITLLLGWSYYAYAIQLCIVSMENTGEQVVCLMAYHLLFAMFVWSYWKTIFTLPMNPSKEFHLSYAEKDLLEREPRGEAHQEVLRRAAKDLPIYTRTMSGAIRYCDRCQLIKPDRCHHCSVCDKCILKMDHHCPWVNNCVGFSNYKFFLLFLAYSLLYCLFIAATDLQYFIKFWTNGLPDTQAKFHIMFLFFAAAMFSVSLSSLFGYHCWLVSKNKSTLEAFRSPVFRHGTDKNGFSLGFSKNMRQVFGDEKKYWLLPIFSSLGDGCSFPTCLVNQDPEQAFTPAGLNSTAKNLENHQFPAKPLRESQSHLLTDSQSWTESSINPGKCKAGMSNPALTMENET
notes: as for B3
For B9, the Km in data set [5] was found to be 3.36 ± 0.73 µM.

B10: human zDHHC2 (Homo sapiens; M356I) (protein)
chain: B9 chain with F306S, M356I
notes: as for B3
Turning to B10, the Km in data set [5] is 4.59 ± 0.89 µM.

B11: human zDHHC2 (Homo sapiens) (protein)
chain: B9 chain with F306S
notes: as for B3
B11: the Michaelis constant (Km) in data set [2] (2 min) was determined as 4.46 ± 0.49 µM.

B12: mouse zDHHC14 (Mus musculus) (protein)
chain: MPPGGGGPMKDCEYSQISTHSSSPMESPHKKKKIAARRKWEVFPGRNKFFCNGRIMMARQTGVFYLTLILILVTSGLFFAFDCRYLAEKITPAIPVVGGILFFFVMGTLLRTSFSDPGVLPRATPDEAADLERQIDIANGTSSGGYRPPPRTKEVVINGQTVKLKYCFTCKIFRPPRASHCSLCDNCVEQFDHHCPWVGNCVGKRNYRFFYMFILSLSFLTVFIFAFVITHVIHRSQQKGFLDALKDSPASVLEAVICFFSVWSIIGLSGFHTYLISSNQTTNEDIKGSWSNKRGKENYNPYSYGNIFTNCCVALCGPISPSLIDRRGYVQPDTPQPAAPSNGITMYGATQSQSDMCDQDQCIQSTKFVLQAAATPLLQSEPSLTSEELHMPGKPGLGTPCASLTLGQPTPPSSMPNLATEATLSDIMPLKDEHGGHQFLTPDEAPSPPRMLGAGSPLAHSRTMHMLGLASQDSLHEDSVRGLVKLSSV
notes: as for B1
Take B12: the Km in data set [1] came out at 0.98 ± 0.15 µM.

The Km is the concentration of substrate that gives half-maximal velocity.
